The source of these data is the DeepSol protein solubility set.

The data set is described as follows: soluble on expression in E. coli; label from the status in PepcDB or PDB records.
Regarding “MGSSHHHHHHSSGLVPRGSHMGTASNGSTQQLPQTIIIGVRKGGTRALLEMLSLHPDVAAAENEVHFFDWEEHYSQGLGWYLTQMPFSSPHQLTVEKTPAYFTSPKVPERIHSMNPTIRLLLILRDPSERVLSDYTQVLYNHLQKHKPYPPIEDLLMRDGRLNLDYKALNRSLYHAHMLNWLRFFPLGHIHIVDGDRLIRDPFPEIQKVERFLKLSPQINASNFYFNKTKGFYCLRDSGKDRCLHESKGRAHPQVDPKLLDKLHEYFHEPNKKFFKLVGRTFDWH”, the “soluble on expression in E. coli” value is reported as “soluble”.
“MKTSSASKSHYTGQFPQGDLQPKTPIPVGRNSEIPKDAALSAQLKGLRPLDRKPSKMPTSSSDLQAVNKMIAENRSNDVGKGQFLLSTQSLGSAERVDSQNYHSRNESGKAPLFFSEFATEKPSLQSVKSLSQGKQDYYAVRHVGKRGRDLFTDEPIEGENSKLGRLKTSPLLSTQSQGTRAIRAFAATATIDKSRGEYVARLHRHVVEALGDEGGVVHLLRPTRDHYAEDSTLNFFTFCEQTELASSLNSLEAISAKKEDRKPIVFTDHKSLVGLSRTSRTEASPIGRLVQQPYFVTSDLKRGDKVVITDDHIQAGGSMLAMEAAAKEAGVDVLALATLSAHPFSPQLTMSSEVSAFLDETLAAWDPQGKVTERLAAIGMPREKLTNSEAMILIAYAIDPASDSAILRFESIQNNLFKRAHLHNVGIDPDAPDTLEQMQKLSSMQEMAGTDSARHFVDDAKVLEGEHDSLIPILKMKPASP”: the “soluble on expression in E. coli” value was “not soluble”.
The result for “MSLKRMVNVLFAGVLAMTVLSCGEEKKGYTLNGEISDVKDGMVYLKKYQDKSFIAVDSAVITDGTFKFEGVCTEPLAYGLTTFRDSKRPLVFFLDNEKMQLKMNESEKILTVTGSAINDLYAQNAPLTRQDGYSIDSLVAVHPASAVTPYFIVKDFAYKLNLEEMKALRAKLDASLDETMYVSQIDGFIKRMKDIQVGAVAPDFTLPDVDGNPVTLSGLRGKYVLIDFWASWCPDCRKENPNIVAAWNKYKDKNFTILGVSLDRKKEPWLAAIEKDQLAWTHVSDLKDWKSDAAVQYAIRWIPMNFLLDPNGVILAVGLEGEALQQKLDEVLKEGHHHHHH” reads “not soluble”; that for “MSLIDAEHIEIALDKRYLRESYLPERALDDILDGQVIIETQGEQVGQVNGLTVIEVTGHPMPYGEPARISCVIHFGDGDIADVERKVELGGNLHAKGMMIMQAFVSSALNLDGSLPFSASIVFEQSYSEVDGDSASLAELCSLVSALSEYPIDQQIAVTGAVDQFGRVQAVGGLNEKIEGFYRVCCHQGLTGEQGVILPSSNLKHLALHKSVVESIKNGEFNIWPVSTVDEAIPLLMGKPFRGEDEDSVIAKIAERIDNFEKLVEGHHHHHH”, “soluble”; that for “MRGIVTIDGPSASGKSSVARRVAAALGVPYLSSGLLYRAAAFLALRAGVDPGDEEGLLALLEGLGVRLLAQAEGNRVLADGEDLTSFLHTPEVDRVVSAVARLPGVRAWVNRRLKEVPPPFVAEGRDMGTAVFPEAAHKFYLTASPEVRAWRRARERPQAYEEVLRDLLRRDERDKAQSAPAPDALVLDTGGMTLDEVVAWVLAHIRR”, “soluble”.
In the case of “MGHHHHHHSHMAAAVAMETDDAGNRLRFQLELEFVQCLANPNYLNFLAQRGYFKDKAFVNYLKYLLYWKDPEYAKYLKYPQCLHMLELLQYEHFRKELVNAQCAKFIDEQQILHWQHYSRKRMRLQQALAEQQQQNNTSGK” it was “soluble”; in that of “MGSVEIPTKVLTNTSSQLKMPVVGMGSAPDFTCKKDTKDAIIEAIKQGYRHFDTAAAYGSEQALGEALKEAIELGLVTRDDLFVTSKLWVTENHPHLVIPALQKSLKTLQLDYLDLYLIHWPLSSQPGKFSFPIDVADLLPFDVKGVWESMEESLKLGLTKAIGVSNFSVKKLENLLSVATVLPAVNQVEMNLAWQQKKLREFCNAHGIVLTAFSPVRKGASRGPNEVMENDMLKEIADAHGKSVAQISLRWLYEQGVTFVPKSYDKERMNQNLRIFDWSLTKEDHEKIAQIKQNRLIPGPTKPGLNDLYDD”, “soluble”; in that of “MSLHLNDQWVLCAPTDNFENKKEIFFTPQGAFGTGLHETTQDILKFIVEEDFEGKSLLDLGTGSGILSIAAGVKGASKIVAVDIRDVEDEVLLNASLNELENIEVVVGNVLHEEYKLNEKFDWIFINIGGEETAMFMDFIEEHIEKTGKLLVSGLVEWSFDWVKEKVENKGFKLNKKFQTNEWCTAIFSKEGHHHHHH”, “soluble”.
The result for “MNIIGLDISKDTIDATLHKTNGSIHYIKFKNNDDGLKQFRLWIKGNRIRKVYIGMEATGIYYEKAADMLSSYYTVYVINPLKIKDYGKSRFNRTKTDKADSNLIADYIKRHQDTLIPYQIPKNKALQKLINLKNQLHQHQKQIKNRLHSTEEDFIRNIHQDLIDTIQDKMEQVKIAISEQIKKQTDNNHYRNLQTIPSIGKDTASVLYAQLTEKHFKTANQFVSYAGLNPAIIQSGTSVRGRGRLSRYGNRRLKSTLYMPALCAYRFNAFPKLINNLKKAGKPKMVIIVAIMRKLAKLAYYIVKTGQPYDAERHRLNQ” reads “not soluble”; that for “MSLAVKILSVDDELDLEVLLTQYFRRQIRKGEYEFAFAHNGLEALQKLLETPDFDIILSDINMPEMDGLTLLAKVNELKNPAMKCIMVSAYGDMDNIRSAMNKGAFDFATKPIDLDDLSRTIEKAIEQVRYIRESQQEHNQLESIKNDLAIAGEIQQTILPRSFPPFPELTEVVNIYASMTPAKDVGGDFYDFFQIDDERIGLVIADVSGKGVPASLFMAVSRTLLRATALRGVSSAECLTYANKLLCKESLDSMFVTVFYGIYHYKTGMMDYTNAGHNPPYLLRGGRTVECLPVASNFVVGVFDDIEFESNTLTFGIGDTLLLYTDGVTEAFNDKREQFSESNLQDILASMHESSSAKEVVTSVLQSVKTFSGDYPQSDDITLLSLQRIKEGHHHHHH”, “soluble”.
On to “MSMKTTQEINKEDEELCNESKKFMDVYYDVMDRKREKIGFLYTQVSNAVWNGNPINGYDSICEFMKALPSTQHDIQSLDAQRLPEGVTGDMSGGMLLNVAGAVTVDGDSKRAFTQTLLLGVEDGKYKVKSDRFRYVD”, for which the “soluble on expression in E. coli” value is “not soluble”.
The result for “MSSYKNILVAIDGSYESELAFEKGVSVALRNDANLLLTHVVDTRALQSVATFDAYIYEKLEQEAHSVLDDYENQARERGLEKVRQIIEFGNPKPLLATEIPEREHVDLIMLGATGLNAFERLLIGSSSEYILRHAKVDLLVVRDPEKTL” reads “not soluble”.
In the case of “GPGSMMDCDHLLRLGMTAKKILENGKGILAADETPKTLGRRFEKLGITNTEENRRKFREILFSTKGIERYIGGVILNQETFEQTSGSGVPLTELLKKKGIEIGIKLDKGLIDYKEKEKISVGLEDLDLRCKSSAFKDATFAKWRSLFYFYDGIPSEDCINENCSILAKYAIICQKNGLVPIVEPEVFLEGDYSMKRSYEVTRQILSTLMKYLNYELVYIPGVLIKASYVTSGQLSNEKYTPKKVATFTLRALLSTIPCGIPGIVFLSGGHGSEDAIGFLNAINMERGCRTWSLSFSFARALTDGVLETWRGDDSNIEEAQKILLETSFKACRGAEGKLWDQE” it was “soluble”.
The result for “MRVEIVPIRPEFDAEICQIIQSVGAEFGAIGEGFGPSDAEVLAMSQYYREQDRSAYFVALLEGKVVGGGGIAPFAGHTDLCELKKLFLLPTSRGHGVGRALSEHCLNFAKQQGYTKCYLDTLSSMTQAIKLYQQLGFEHLTQPMAGTEHNGCDVWMLKSLN” reads “not soluble”; that for “MRGSHHHHHHGSRSSKNVIKEFMRFKVRMEGTVNGHEFEIEGEGEGRPYEGHNTVKLKVTKGGPLPFAWDILSPQFQYGSKVYVKHPADIPDYKKLSFPEGFKWERVMNFEDGGVVTVTQDSSLQDGCFIYKVKFIGVNFPSDGPVMQKKTMGWEASTERLYPRDGVLKGEIHKALKLKDGGHYLVEFKSIYMAKKPVQLPGYYYVDSKLDITSHNEDYTIVEQYERTEGRHHLFL”, “soluble”; that for “MSLDRELKNLHLNISQLAALSGAHRQTVAARVKNISPAGGHESNLKLYRLTDILAELMKAPLPVDNEEMDPHARKAWYQSERDRLKFEQETGQLVPVSDVRRSFSVVVKAIVQVLETWPDRLERDRGWTASQLNEVQIVVDEIRDTLEKAVIDCCDEADEGHHHHHH”, “soluble”.
For the sequence “AEMKTDAATLAQEAGNFERISGDLKTQIDQVESTAGSLQGQWRGAAGTAAQAAVVRFQEAANKQKQELDEISTNIRQAGVQYSRADEEQQQALSSQMGF”, the “soluble on expression in E. coli” value is listed as “soluble”.
On to “HRPKRIESAVISSFSPVINSPMRDYLGKGLDHLATHSRYDMGRLINDTIGKHLPSLFKRFNYRHVSTLDGHEYDQMHYHFSQILELDPDNYLTAGQQIKAPVLFINGAWDEYTSASDATQFSRYLQNCSFSTIEATGHFLDMEHKAACNDSKQALMKFLQ”, for which the “soluble on expression in E. coli” value is on record as “not soluble”.
Regarding “MESIVDKQAVKHFLLQLQDKICQQLEATDGQAQFIEDAWQREPGEKLGGGGRTRVMREGAVFEQGGVNFSHVFGEQMPASATAHRPELAGRRFEAMGVSLVMHPKNPYVPTSHANVRFFIAEKEGEAPIWWFGGGFDLTPFYPFVEDGQHWHQTAKNICAPFGSEIYNEHKAWCDRYFYLPHRNETRGIGGLFFDDLNEWSFEQCFAYMQAVGEGYTQAYVPIVEKRKNTPFTERERQFQLYRRGRYVEFNLVLDRGTLFGLQTGGRTESILMSMPPLARWEYAYQPQAGTPEAKLSEFLVPREW”, the “soluble on expression in E. coli” value was “not soluble”.
In the case of “MGTTSSQSKTLYQKLYDAHIVHEAPNETPLLYIDRHLVHEVTSPQAFDGLRAMGRPVRQPGKTFATMDHNVSTQTKDINASGEMARIQMQELIKNCAEFGVSLYDLNHPFQGIVHVIGPEQGMTLPGMTIVCGDSHTATHGAFGSLAFGIGTSEVEHVLATQTLKQGRAKTMRIEVNGTVGAGITAKDIVLAIIGKTGSAGGTGHVVEFCGSAIEALSMEGRMTLCNMAIEMGAKAGLVAPDDTTFAYLKGRQFAPTGEQWEQGVAYWRTLKSDADAQFDTIVTLDAADIAPQVTWGTNPGQVIAVNQIIPAPESFSDPVERASAEKALAYMDLRPGIKLTEVAIDKVFIGSCTNSRIEDLRAAAAIAQGRKVAKGVQAIVVPGSGPVKAQAEAEGLDKIFIAAGFEWRLPGCSMCLAMNNDRLEPGERCASTSNRNFEGRQGRGGRTHLVSPAMAAAAAVSGHFADVRELSATTH” it was “not soluble”.
Take “MDVFLMIRRHKTTIFTDAKESSTVFELKRIVEGILKRPPDEQRLYKDDQLLDDGKTLGECGFTSQTARPQAPATVGLAFRADDTFEALCIEPFSSPPELPDVMKPQDSGSSANEQAVQ”: the “soluble on expression in E. coli” value was “soluble”.
For the sequence “MSYTHILVAVAVTPESHQLLAKAVSIARPVQAKVSLITLASDPELYNQFAAPMMEDLRAVMHEETENFLKMLGEKADYPIEQTFIASGELSQHILAVCRKHHVDLVICGNHNHSFFSRASCSAKSVVSASQVDVLLVPLAGD”, the “soluble on expression in E. coli” value is given as “not soluble”.
